Laboratory results published in the DeepSol protein solubility set.

Test: soluble on expression in E. coli; label from the status in PepcDB or PDB records

Soluble on expression in E. coli, not soluble:
MGSDKIHHHHHHMAIQQLEKPEHAGRRTAPEITVSGIGKRYGATPVLMDVTLSVTPGEIHGIMGENGAGKSTLLKILGGAIMADSGTMELDGNPVRITTPRDAISQGISLISQELALIPNLSVLENVFLGRWSNRGSLLRPTKDGDHFARLLEETGFDLDPRATVGNLPIGQQQQVEILKALARGAKVLCMDEPTAVLNEAEKEKLLQVIKRLAQTGTTILIVSHYLEEVLELVDRVTILRDGQHIVTEDAAGHTPESLVRLMVGRDVDFLLPEIRQVQSQADTVLRVVGLTSAKVKEISFQVRRGEILGIAGLVGSGRSETLLAVFGADRTTGGHVEVNGRRIRASSIRDAIKAGIALIPESRKEQGLVMSRPASENIALSTLSGRSWAGFVSARREKAAVKDVSRSVDLRGARPGQPIANLSGGNQQKALFAKWLLDPPAVLLVDEPTRGVDIAAKARIHSIIAELAAKGTAVIVVSSELEEVLGLSHRIHVMRHGRIVAEFDRNASRDEVMTSAFLK
MGSDKIHHHHHHMAISRLLVEKFRNLTAVDLDFDPCFNFLIGNNGSGKTSLLEAIFYLGHGRSFKSAVTNRIISYDEPHFTLFGQIQESQHQWSIGLQKLRQGNTLVKINGEDGNKISDLAHLLPMQLITPEGLTLLNGGPSYRRAFLDWGLFHHQTSFYSAWSNLNRLLKQRNAALAQNQPYSAIKIWDVELAKLAHQVSEWRAEYAEALSPEIEQTCQLFLPELEINVSFHQGWEKNADYYEILQQNFERDRALNYTFSGPQKADFRFKAQGLPVEDVLSRGQLKLLMCALRLAQGEHLMKEKQRHCIFLIDDFASELDQYKRALLAERLQQSGSQVFVTAITQRQLKEMQVENKKMFSVHNGIINALN
MGSDKIHHHHHHMAIYLEMPKLIHEFPFRSLSNEGEVLTTPHWHKEIEILLITEGVVNLFINDKPMQLKKGEIVIIKGGDIHYILPSPGSERLVFQFDISFFNDLILLNEEKESLINLFSSIKKCSRDWSAKIRKSVFDILIDIYNEDLYKIEGYSYAIKGKMYNLIPILYRQIPREIEENTVEYEINSKEILERLNNIFKYVEKNYKQPIKLEDVSYEVGFSVYYFTKFFKKNTGKTFITFLNEYRLEKAKWILLNNNISIVDLVEEVGFGSTKTFYRVFKEKIGVSPLEFKKRYNSLEKKGSVSK
MGSDKIHHHHHHMAKFQSYVICTSPRSGSTLLCNMLAATGVAGKPKSYFHHGSITDWLSYLNLDINPSLPESDLLAAIFEAAVETGRNGTGLFGLRLQRHSFDLFVEKLAVLYPTLASDRQRIEAAFGSTLFIHLTRLDKVQQAVSYVKAQQTGLWHRAPDGTELERLSAPRDPIYDAAKIHASYDEFIQYDRAWQSWFDMQGIQPLRITYEALCADPIASLKDVLVQLGVNGEAASSVVPGTAKLADGINQSWETRFRTEHLHSDPL
MGSDKIHHHHHHMAKQVVKRTIIGSITNHQQVQDDLDSLGFAASKLWNVARWTTGRIWNETGHIPEDGELKSYLKSHERYSDLHSQSSQRVLEELSEAFTGWYGKRRNGDSKANPPAYRKHNDEHPRSTLTFKGAGFKLDTTNGRLRLSKGENLKEYWSDFVLCDIQIRPDVDLSAIESVQQVRAVWNKQRNEWELHVVCNVTVDIPENSAEKTVGIDLGICNFAALAFENQESELYPLNCLKQDDYYYSKHIARCDDSSSEEATRLHAKKSNRRTHYFHTLSKHIVERCVDENVGVIAIGDLSGIREDEDGEMKDWGKHGNLDLHSWAFDRFTDMLEYKAEEVGISVKRVSEENTSKSCSSCGCERDTNRVERGLYVCNECELVANADVNGAENIRQQVSPNPRSEDRSNGWLAQPSTLLFDKETGVFAPQEQVVS
MGSDKIHHHHHHMALANFIDRAATAASQVLADFHLEDFKAALEKQVVAVAFDDQAASCAEGQATLDLAVRLLARLYPVLAILPLGSAASFQAQALERLAKSINPKVGIRRSGKSATICVVAGVTRPPLRCPTFFMGSDGWAAKLSRTDPVGSGSSLLPYGAGAASCFGAANVFRTIFAAQLTGAELDETIDLSLYSYDKTKAGEAGPIDIPVDLGETHLVGLGAIGHGSLWALARQPGLTGRLHVIDHEAIELSNLQRYVLAGQAEIGMSKAVLAATALRSTAIGVEAHPLTWAEYVARHGDWVFDRVGVALDTAADRLAVQGALPRWIANAWTQEHDLGISRHGFDDGQACLCCMYLPSGKSKDEHHLIAEELGIPEAHEQVKTLLQTNAGVPNDFVVRVATAMAVPFEPLAPFVGQPLRSFYQQAICGGLVFQLSDGSRRVRTVVPMAFQSALAGIMLAAELVKHSAGFPVGPTTSTRVNLLRPLGSRLHDPKAKDSSGRCICSDDDFIAAYRRKYGKSIVQLSDVSAA
